In assay [1] the target is 70-kDa N-terminal FN fragment (FN70). The assay is described as follows: solid-phase binding assay. The conditions noted are these: FN70 25 μg/ml coated on plate, read off a plot.
In another assay the target is Full-length fibronectin (UniProt P02751). Description: solid-phase binding assay. The conditions noted are these: FN-FL 25 μg/ml coated on plate, read off a plot.
[2] abbreviates: [HSP90α] 2.5 µM (read from x axis), parent: est. 1.4.
Where [3] appears, read: [HSP90α] about 0.31 µM (read from x axis), parent: est. 1.1.
The mark [4] stands for this setting: [HSP90α] about 0.63 µM (read from x axis), parent: est. 1.3.
[5] abbreviates: [HSP90α] about 1.25 µM (read from x axis), parent: est. 1.4.

Sequence of Full-length fibronectin (P02751 32-2477): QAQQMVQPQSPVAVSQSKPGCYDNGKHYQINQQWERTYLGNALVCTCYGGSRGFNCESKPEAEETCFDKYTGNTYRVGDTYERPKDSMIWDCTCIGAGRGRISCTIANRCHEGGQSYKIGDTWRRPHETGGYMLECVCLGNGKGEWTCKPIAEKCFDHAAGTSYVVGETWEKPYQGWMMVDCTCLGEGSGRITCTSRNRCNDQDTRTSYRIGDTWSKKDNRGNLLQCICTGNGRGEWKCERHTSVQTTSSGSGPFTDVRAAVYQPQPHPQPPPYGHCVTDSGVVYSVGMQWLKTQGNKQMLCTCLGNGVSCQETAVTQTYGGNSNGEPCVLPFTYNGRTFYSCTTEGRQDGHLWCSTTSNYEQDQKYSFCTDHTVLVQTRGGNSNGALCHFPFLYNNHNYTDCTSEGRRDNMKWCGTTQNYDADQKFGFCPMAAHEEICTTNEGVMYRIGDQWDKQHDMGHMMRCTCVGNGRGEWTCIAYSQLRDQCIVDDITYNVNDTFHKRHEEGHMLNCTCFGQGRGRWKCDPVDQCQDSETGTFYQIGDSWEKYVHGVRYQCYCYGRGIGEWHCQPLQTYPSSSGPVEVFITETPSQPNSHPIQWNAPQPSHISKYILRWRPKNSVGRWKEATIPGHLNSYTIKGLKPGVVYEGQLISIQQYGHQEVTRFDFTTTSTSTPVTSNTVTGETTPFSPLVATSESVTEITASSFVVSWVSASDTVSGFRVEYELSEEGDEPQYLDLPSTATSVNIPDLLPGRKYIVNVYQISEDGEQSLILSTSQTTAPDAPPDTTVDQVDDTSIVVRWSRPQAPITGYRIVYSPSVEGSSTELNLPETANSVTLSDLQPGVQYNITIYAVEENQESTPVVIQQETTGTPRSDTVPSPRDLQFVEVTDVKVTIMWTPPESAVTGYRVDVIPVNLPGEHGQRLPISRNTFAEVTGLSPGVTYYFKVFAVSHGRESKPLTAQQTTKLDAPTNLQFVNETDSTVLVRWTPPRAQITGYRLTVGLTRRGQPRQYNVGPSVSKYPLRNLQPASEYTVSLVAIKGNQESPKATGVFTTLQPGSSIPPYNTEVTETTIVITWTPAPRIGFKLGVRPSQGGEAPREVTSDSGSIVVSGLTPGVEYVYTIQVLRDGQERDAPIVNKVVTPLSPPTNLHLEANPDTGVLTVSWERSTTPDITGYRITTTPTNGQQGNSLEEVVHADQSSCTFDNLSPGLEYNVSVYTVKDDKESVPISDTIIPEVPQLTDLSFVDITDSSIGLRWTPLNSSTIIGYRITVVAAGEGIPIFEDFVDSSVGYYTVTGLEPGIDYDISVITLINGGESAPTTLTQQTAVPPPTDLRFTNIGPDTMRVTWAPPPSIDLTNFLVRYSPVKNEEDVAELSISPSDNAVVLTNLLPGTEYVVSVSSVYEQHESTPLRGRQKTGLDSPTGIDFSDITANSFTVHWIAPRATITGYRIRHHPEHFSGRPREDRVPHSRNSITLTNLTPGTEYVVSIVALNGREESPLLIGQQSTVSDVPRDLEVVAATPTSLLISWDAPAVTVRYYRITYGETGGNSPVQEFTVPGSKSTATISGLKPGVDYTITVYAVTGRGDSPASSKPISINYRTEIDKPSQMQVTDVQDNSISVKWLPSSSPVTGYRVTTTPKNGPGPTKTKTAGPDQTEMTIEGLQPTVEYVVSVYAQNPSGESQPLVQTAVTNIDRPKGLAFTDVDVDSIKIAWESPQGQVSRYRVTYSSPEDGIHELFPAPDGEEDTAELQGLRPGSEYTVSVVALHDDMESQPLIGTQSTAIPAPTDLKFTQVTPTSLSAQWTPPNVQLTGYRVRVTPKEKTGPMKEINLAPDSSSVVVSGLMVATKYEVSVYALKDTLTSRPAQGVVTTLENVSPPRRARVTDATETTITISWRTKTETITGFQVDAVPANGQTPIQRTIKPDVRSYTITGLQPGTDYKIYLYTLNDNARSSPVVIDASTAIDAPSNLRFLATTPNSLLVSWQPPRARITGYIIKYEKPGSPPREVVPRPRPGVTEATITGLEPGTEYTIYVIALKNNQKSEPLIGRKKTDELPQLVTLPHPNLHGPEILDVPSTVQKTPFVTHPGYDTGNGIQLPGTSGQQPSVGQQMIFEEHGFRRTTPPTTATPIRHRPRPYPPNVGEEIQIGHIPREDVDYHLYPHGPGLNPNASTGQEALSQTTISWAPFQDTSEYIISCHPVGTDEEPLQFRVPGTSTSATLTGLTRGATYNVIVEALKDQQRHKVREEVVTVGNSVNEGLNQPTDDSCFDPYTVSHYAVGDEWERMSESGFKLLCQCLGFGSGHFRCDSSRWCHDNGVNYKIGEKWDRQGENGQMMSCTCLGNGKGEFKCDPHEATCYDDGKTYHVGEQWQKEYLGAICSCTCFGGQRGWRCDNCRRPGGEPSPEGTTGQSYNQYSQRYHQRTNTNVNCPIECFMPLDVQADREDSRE

As to “Recombinant full-length wild type His-HSP90α (from UniProt P07900) Y528A”, the response (Absorbance (450 nm)) in assay [1] (setting [2]) is 1.1; in assay [1] (setting [3]) it was 0.82; in assay [1] (setting [4]), 0.93; in assay [1] (setting [5]), 1.1.

“Recombinant full-length wild type His-HSP90α (from UniProt P07900) F352A; Y528A”: the response (Absorbance (450 nm)) in assay [1] (setting [2]) worked out at 1.1; in assay [1] (setting [3]), 0.72; in assay [1] (setting [4]), 0.83; in assay [1] (setting [5]), 0.99.

Regarding “Recombinant full-length wild type His-HSP90α, P07900 F352A; Y528A”, the response (Absorbance (450 nm)) with Full-length fibronectin (setting [2]) came to 0.53; in the assay with Full-length fibronectin ([HSP90α] about 0.31 µM (read from x axis), parent: est. 1.0) it was 0.36; with Full-length fibronectin ([HSP90α] about 0.63 µM (read from x axis), parent: est. 1.25), 0.45; with Full-length fibronectin ([HSP90α] about 1.25 µM (read from x axis), parent: est. 1.2) it was 0.44.

The values above are taken from paper PMC10746679.
